This note sets out measurements from publication PMC12015215, “Structural basis of human Mediator recruitment by the phosphorylated transcription factor Elk-1” (Nature Communications, 2025).

For assay [1], the target named is T1, BAP-MED23-6His, biotinylated (human, UniProt Q9ULK4-1 1-1368, biotin on the BAP tag (biotinylated during expression)).
T1 construct: Mediator complex subunit MED23, human, isoform 1 (NM_004830.3); Captured by its biotin on a streptavidin SA chip; also called biotinylated MED23; MED23 with a BAP tag; source: insect cells (pFastBac Dual with BirA biotin ligase), purified by the same procedure as MED23-6His; not shown: BAP (biotin acceptor peptide), N-terminal, kept
T1 sequence: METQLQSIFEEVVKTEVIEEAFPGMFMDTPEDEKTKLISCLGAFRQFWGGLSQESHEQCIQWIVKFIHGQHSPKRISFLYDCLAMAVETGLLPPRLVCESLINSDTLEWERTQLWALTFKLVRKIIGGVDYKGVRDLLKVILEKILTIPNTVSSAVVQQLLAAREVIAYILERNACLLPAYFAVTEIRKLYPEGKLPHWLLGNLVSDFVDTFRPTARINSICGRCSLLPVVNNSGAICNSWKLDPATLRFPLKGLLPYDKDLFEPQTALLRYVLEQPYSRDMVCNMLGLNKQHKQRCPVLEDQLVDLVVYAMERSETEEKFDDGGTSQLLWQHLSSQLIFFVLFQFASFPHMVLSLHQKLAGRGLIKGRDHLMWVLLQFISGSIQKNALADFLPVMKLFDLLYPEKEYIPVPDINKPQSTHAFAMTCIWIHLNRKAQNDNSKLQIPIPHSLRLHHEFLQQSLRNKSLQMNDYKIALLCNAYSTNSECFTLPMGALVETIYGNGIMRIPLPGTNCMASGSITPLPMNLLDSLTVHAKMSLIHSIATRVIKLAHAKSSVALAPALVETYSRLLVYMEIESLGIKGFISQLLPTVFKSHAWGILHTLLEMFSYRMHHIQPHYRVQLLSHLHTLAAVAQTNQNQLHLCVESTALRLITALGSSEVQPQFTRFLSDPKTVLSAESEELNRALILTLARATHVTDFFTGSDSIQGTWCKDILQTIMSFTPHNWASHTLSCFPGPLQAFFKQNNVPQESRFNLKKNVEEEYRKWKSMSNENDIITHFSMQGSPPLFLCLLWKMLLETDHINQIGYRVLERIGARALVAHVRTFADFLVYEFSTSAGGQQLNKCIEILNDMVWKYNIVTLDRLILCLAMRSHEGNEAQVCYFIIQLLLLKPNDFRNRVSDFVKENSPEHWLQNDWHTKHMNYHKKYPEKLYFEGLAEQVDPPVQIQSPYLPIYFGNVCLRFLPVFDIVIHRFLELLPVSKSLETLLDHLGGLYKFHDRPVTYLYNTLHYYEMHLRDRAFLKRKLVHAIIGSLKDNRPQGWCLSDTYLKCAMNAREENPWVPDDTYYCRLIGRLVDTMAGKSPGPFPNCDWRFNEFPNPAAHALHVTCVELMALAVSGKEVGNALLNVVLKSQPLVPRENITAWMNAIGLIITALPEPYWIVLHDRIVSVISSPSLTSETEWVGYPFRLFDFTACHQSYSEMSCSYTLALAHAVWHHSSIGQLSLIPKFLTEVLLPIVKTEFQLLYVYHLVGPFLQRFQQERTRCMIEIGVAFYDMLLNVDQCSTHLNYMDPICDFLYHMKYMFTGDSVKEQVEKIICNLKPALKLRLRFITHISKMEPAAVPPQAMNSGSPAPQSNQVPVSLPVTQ
Kind of assay: SPR; BIAcore T200; biotinylated BAP-MED23 captured on a streptavidin SA chip (2000-3000 RU), PBS+ buffer; GST-fused Elk-1 derivatives injected at 0.25-4 µM, single-cycle kinetics in triplicate, 1:1 Langmuir model.

The target in assay [2] is T2, MED23-6His (human Mediator complex subunit MED23, wild type) (human, UniProt Q9ULK4-1 1-1368).
T2 construct: Mediator complex subunit MED23, human, isoform 1 (NM_004830.3); cloned before a rhinovirus 3C protease site followed by a 6xHis tag; The stored protein is named MED23-6His; cleavage by 3C protease is not reported; In the functional rows MED23 WT was expressed from PIN510A-1 or FC550A-1 plasmids in MED23-/- MEFs; also called MED23 WT; recombinant MED23; source: ExpiSF9 insect cells (baculovirus), …
T2 sequence: T1 sequence
The assay can be described thus: pull-down; 4 µg GST constructs immobilised on GST-Trap agarose; 20 µg recombinant MED23 or MED23 G382F, 90 min at 4 °C in PBS-casein; SDS-PAGE, Coomassie. The note with it: both partners purified.

Like-named read-outs stand apart in the source and are kept apart here.

In turn, “GST-fused Elk-1^1P (S383P) (308–401)-6His, phosphorylated only at S383 (from UniProt P19419 308-401) (domain or fragment)” yielded a Kd in assay [1] of 81 nM. In assay [1], “GST-fused Elk-1^2P (T368P/S389P) (308–401)-6His, phosphorylated at T368 and S389 (from UniProt P19419 308-401) (domain or fragment)” returned a Kd of 75 nM. The same measure, in the same setting: with “GST-fused Elk-1^2P (T368P/S383P) (308–401)-6His, phosphorylated at T368 and S383 (from UniProt P19419 308-401) (domain or fragment)” the figure was 42 nM.

B1: phosphorylated GST-Elk-1^8P (308–428)-6His (domain or fragment, UniProt P19419 308-428, looked up)
chain: SQPQKGRKPRDLELPLSPSLLGGPGPERTPGSGSGSGLQAPGPALTPSLLPTHTLTPVLLTPSSLPPSIHFWSTLSPIAPRSPAKLSFQFPSSGSAQVHIPSISVDGLSTPVVLSPGPQKP
modifications: phosphorylated in E. coli by co-expressed ERK2-GOF/MEK1DD; which of the eight S/T-P sites carry phosphate is not stated
notes: In pGEX-6P1; also called Elk-1 TAD; Gal4-Elk-1^8P (308–428) in the reporter assays; source: E. coli BL21 (DE3), co-expressed with MBP-ERK2-GOF/MEK1DD, purified (GSTrap 4B and/or HisTap HP); not shown: GST, N-terminal, kept
On to B1, for which, in assay [2], the binding result is listed as “binds”.

B2: GST-fused Elk-1^3P (308–401)-6His, phosphorylated at T368, S383 and S389 (domain or fragment, UniProt P19419 308-401, looked up)
chain: SQPQKGRKPRDLELPLSPSLLGGPGPERAPGSGSGSGLQAPGPALAPSLLPTHTLAPVLLTPSSLPPSIHFWSTLSPIAPRSPAKLSFQFPSSG
modifications: phosphorylated at T368, S383 and S389 by co-expressed ERK kinase
notes: In pGEX-4T1 (synthesised by Genscript); also called triply phosphorylated Elk-1; source: E. coli BL21 (DE3), co-expressed with MBP-ERK2-GOF/MEK1DD, purified (GSTrap 4B and/or HisTap HP)
In assay [1] (both partners purified), B2 gave a Kd of 60 nM. This counts as double-digit nanomolar.

Usually Kd stands for the equilibrium constant for the complex coming apart. A high value points to lower affinity.
